# Results: US6825035, “Compositions and methods for modulating expression within smooth muscle cells” (Setagon, Inc.)
# T1: Serum response factor (SRF) (UniProt D3ZHH8 D3ZHH8:1-504)
# T1 sequence: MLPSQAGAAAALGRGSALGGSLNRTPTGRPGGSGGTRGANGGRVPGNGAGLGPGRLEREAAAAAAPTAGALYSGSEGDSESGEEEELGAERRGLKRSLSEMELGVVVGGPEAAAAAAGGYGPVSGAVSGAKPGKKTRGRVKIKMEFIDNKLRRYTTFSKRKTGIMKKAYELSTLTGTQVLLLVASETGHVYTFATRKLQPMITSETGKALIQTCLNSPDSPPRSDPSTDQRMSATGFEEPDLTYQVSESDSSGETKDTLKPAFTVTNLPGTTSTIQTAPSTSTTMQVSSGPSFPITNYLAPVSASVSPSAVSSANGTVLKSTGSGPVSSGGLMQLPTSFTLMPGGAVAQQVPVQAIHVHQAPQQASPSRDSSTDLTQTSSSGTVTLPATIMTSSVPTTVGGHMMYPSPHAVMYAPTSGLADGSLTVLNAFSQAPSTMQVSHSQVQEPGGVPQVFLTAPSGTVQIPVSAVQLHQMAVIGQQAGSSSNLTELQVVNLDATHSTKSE
# B1: Intronic CArG (SM alpha-actin first intron) (dsDNA)
# DNA 1: TTTTACCTAATTAGGAAATG
# DNA 2: CATTTCCTAATTAGGTAAAA
# Biological target: T1, Serum response factor (SRF)
# Test: EMSA; supershift with SRF antibody; binds more avidly than CArG A and B; 10 mM Tris pH 7.5, 100 mM KCl, 50 mM NaCl, 1 mM EDTA, poly(dI-dC), room temp
# Settings: protein: synthetic; tags: endogenous SRF in rat aortic SMC nuclear extract, identified by SRF antibody supershift; chain copies: 2; label: 32P end label
# Description: 6.1.4 Preparation of Nuclear Extracts, In Vitro Synthesis of SRF, and Electromobility Shift Assays Nuclear extracts were prepared from confluent rat aortic SMCs using the methods of Dignam (Dignam J D, et al., *Nucleic Acids Res.* 1983;11:1475–1489). Culture conditions matched those used for transient transfection assays. Oligonucleotides used in EMSAs were purchased commercially (Operon Technologies) and include the following: CArG A, 5'-[…]-3' (SEQ ID NO:14); CArG B, 5'-[…]-3' (SEQ ID NO:15); Intronic CArG, 5'-[…]-3' (SEQ ID NO:16). Probes were ^32P end labeled and annealed. All probes were purified on a 6% acrylamide gel, eluted in TE, and precipitated twice in ethanol.
# EMSAs were performed with 20 µl of binding reaction that included=30 pg of labeled probe, 5 µg of SMC nuclear extract 0.2 to 0.6 µg of poly (dI-dC) in 1×binding buffer (10 mM TrisHCl (pH 7.5), 100 mM KCI, 50 mM NaCl, 1 mM dithiothreitol, 1 mM EDTA, and 5% glycerol). Following a 30 min incubation at room temperature, the samples were subjected to electrophoresis on a 5% polyacrylamide gel, which had been pre-run at 170V for 1 hr. Electrophoresis was performed at 170V in 0.5×TBE (45 mM Tris Borate, 1 mM EDTA). Gels were dried and exposed to film for 24–72 h at −70 ° C. […]
binder,measurement,value
B1,binding result,binds
